T1: human CEACAM5 protein (Sino-11077-H08H-100UG) (human, UniProt P06731 35-685)
T1 construct: Bought protein; also called soluble recombinant CEACAM5
T1 sequence (looked up): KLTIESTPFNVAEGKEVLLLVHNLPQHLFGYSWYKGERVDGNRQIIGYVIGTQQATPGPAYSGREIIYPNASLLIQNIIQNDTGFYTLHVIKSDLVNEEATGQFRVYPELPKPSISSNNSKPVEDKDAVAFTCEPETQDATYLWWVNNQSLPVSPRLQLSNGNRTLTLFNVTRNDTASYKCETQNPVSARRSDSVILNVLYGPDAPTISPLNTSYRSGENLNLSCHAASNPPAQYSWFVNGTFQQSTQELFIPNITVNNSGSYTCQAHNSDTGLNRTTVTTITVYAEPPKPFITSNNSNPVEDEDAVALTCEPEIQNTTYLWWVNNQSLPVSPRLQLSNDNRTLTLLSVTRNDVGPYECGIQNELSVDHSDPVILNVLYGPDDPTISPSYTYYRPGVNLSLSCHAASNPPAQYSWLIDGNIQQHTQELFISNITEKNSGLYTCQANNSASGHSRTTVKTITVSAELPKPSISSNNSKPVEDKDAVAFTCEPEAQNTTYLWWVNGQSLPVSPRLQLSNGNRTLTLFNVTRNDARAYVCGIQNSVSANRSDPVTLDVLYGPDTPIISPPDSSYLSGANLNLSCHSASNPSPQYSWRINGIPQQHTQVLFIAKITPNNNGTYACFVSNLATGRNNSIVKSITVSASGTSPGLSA

B1: IMMU130-263-1-3 (bispecific antibody)
heavy (part 1 of 2): EVQLVESGGGVVQPGRSLRLSCSASGFDFTTYWMSWVRQAPGKGLEWIGEIHPDSSTINYAPSLKDRFTISRDNAKNTLFLQMDSLRPEDTGVYFCASLYFGFPWFAYWGQGTPVTVSS
heavy (part 2 of 2): GGGGSGGGGSGGGGSGGGGSEVQLLESGGGLVQPGGSLRLSCAASGFTFSSSAMSWARQTPGKGFEWVSGIYSGGSTYYTESVKDRFTISRDNSKNTVYLQMNSLKPEDTAVYYCATWGTLRFGVWAEYDHWGQGTQVTVSS
light: DIQLTQSPSSLSASVGDRVTITCKASQDVGTSVAWYQQKPGKAPKLLIYWTSTRHTGVPSRFSGSGSGTDFTFTISSLQPEDIATYYCQQYSLYRSFGQGTKVEIK
notes: also called parental bispecific antibody; parental antibody; not shown: IgG1 heavy chain constant region (full IgG part, Fc of IgG1 backbone with N297A mutation); light chain constant region is not described
B2: Labetuzumab (antibody, V domains shown)
VH: B1 heavy (part 1 of 2)
VL: B1 light
notes: also called Immu130; parental CEACAM5 antibody

How the values were obtained:
human 4-1BB = target: T2, human 4-1BB (human, UniProt Q07011 24-255); experiment: flow cytometry, CHO-K1 cells overexpressing human 4-1BB
T2 construct: whole, on cells; also called hu4-1BB; CD137
T2 sequence (Q07011 24-255): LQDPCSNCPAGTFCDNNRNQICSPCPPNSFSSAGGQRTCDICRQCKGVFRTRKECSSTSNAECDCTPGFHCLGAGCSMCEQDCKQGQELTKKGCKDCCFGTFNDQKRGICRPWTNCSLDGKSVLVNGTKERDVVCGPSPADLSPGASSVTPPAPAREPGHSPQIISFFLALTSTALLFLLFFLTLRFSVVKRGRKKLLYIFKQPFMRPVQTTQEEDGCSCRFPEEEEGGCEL

[1] = target: T1, human CEACAM5 protein …; experiment: ELISA, human CEACAM5 protein coated at 2 ug/mL

Binder	binding result (human 4-1BB)	binding result [1]
B1	binds	–
B2	–	binds

Reference: patent US20250206834A1 (LANOVA MEDICINES, published 2025)
